The values that follow come from patent US20180031558A1, “BIOMARKERS OF ACUTE LIVER INJURY” (The Regents of the University of Michigan, priority 2014, published 2018).

The test system of series [1] is liver. The experiment in a line: FasL and APAP induced mouse liver injury, histological analysis of liver sections. It counts as in vivo. The settings on record: mice, intraperitoneal; FasL 0.15 μg/g, 4 h; APAP 700 mg/Kg, 8 h. Here is the method:
FIG. 4. CPS1 is released into serum during FasL and APAP induced mouse liver injury. Mice were injected with FasL (0.15 μg/g) and APAP (700 mg/Kg) and sacrificed after 4 h and 8 h, respectively. Liver damage was analyzed serologically, biochemically and histologically. Panel A: Immunoblots of serum CPS1, HMGB1 and caspase activation using total liver lysate. Coomassie stain of serum IgG heavy chain (just above the 50 kDa prominent species) and IgG light chain (25 kDa), and an actin blot of total liver lysates are included as loading controls. Serum ALT of the individual mice is also indicated (bottom of panel). Panel B: Hematoxylin and eosin stained liver sections. […] Scale bar=40 μm.
(§1) Primary hepatocytes from mice were isolated (Snider et al. J Cell Biol 195: 217-29, 2011.; herein incorporated by reference in its entirety). […] Serum ALT levels were determined using a Vetscan-vs2 instrument (ABAXIS) using the comprehensive diagnostic profile cartridge or using Unit for Laboratory Animal Medicine (ULAM) core facility at University of Michigan. […]
Mice were injected with FasL in saline (to induce apoptosis), or with APAP in DMSO (to induced necrosis) or were injected with vehicle (saline or DMSO). The serum and liver histology were then analyzed. For both the APAP and FasL conditions, CPS1 was more easily detected in the serum of the mice and parallels the elevation of ALT (FIG. 4A). […]

In series [2] the test system is primary mouse hepatocytes. Put plainly: Viable cell count by trypan blue staining of treated primary hepatocytes. It counts as cell-based. The settings on record: FasL 0.5 μg/ml, APAP 1 mM. On the procedure:
FIG. 2. Primary hepatocytes release CPS1 in response to difference types of liver injury. A: Primary mouse hepatocytes were cultured in the presence of hypoosmotic media (200 mOsm/L), FasL (0.5 μg/ml), and acetaminophen (APAP, 1 mM). The concentrated cell culture media and total cell lysates were used for immunoblotting with antibodies to the indicated proteins. B: After each treatment as in panel A, the viable cell count was determined using trypan blue staining after trypsin treatment. Each bar represents the mean of 10 to 15 fields. […] C: Mouse hepatocytes were challenged with FasL, APAP and hypoosmosis as in Panel A. Cells were fixed and immunostained with CPS1 (red) and counter stained with DAPI (blue). Arrows highlight areas with less dense CPS1 staining. Scale bar=20 μm.
as §1, with “entirety). The liver was perfused with 3-5 ml of perfusion media through the portal vein with a flow rate of 3 ml/min followed by perfusion with 15-20 ml of digestion media containing 150 units/ml of collagenase-II (Worthington) at the same flow rate.” for “entirety).”

Series [3] concerns liver. The settings on record: mice fed 0.1% DDC for 10 days, 15 days, 6 weeks, 3 months.
Method: Serum CPS1 in chronic liver injury. Panel A: The presence of serum CPS1 and HMGB1 was tested in animals exposed to the hepatotoxin DDC for 10 days, 15 days, 6 weeks and 3 months. Corresponding serum ALT values are also included. […] Each lane corresponds to serum from separate mice. Two mice for each time point were shown except the control. Panel B: Hematoxylin and eosin staining of livers from control and DDC-administered mice. Scale bar=40 μm. Panels C and D: Human sera from patients with chronic hepatitis B virus infection (HBV), chronic hepatitis C infection (HCV), or controls were analyzed for the presence of CPS1 and HMGB1. Serum from APAP and from control donors with normal ALT were used as positive and negative controls, respectively. […] Each lane represents separate patients or donors.
To test the CPS1 release during chronic mouse liver injury, mice were fed 0.1% DDC (a porphyrinogenic hepatotoxin) for 10-days, 15-days, 6-weeks and 3-months and serum CPS1 levels were analyzed.
The conditions of series [4]: rats; cited from earlier work.
The nature of series [5]: Half-life of CPS1 in mouse serum after FasL injection (western blot densitometry). It counts as in vivo. On the procedure:
FIG. 6. CPS1 has a short half-life in mouse serum. In order to determine the half-life of CPS1 in mouse serum, mice (five total) were injected with FasL (0.075 μg/g) and blood was collected from the same animal via tail vain at the indicated time points. Sera were used to determine serum ALT, or mixed with 2× SDS sample buffer to measure circulating serum CPS1 by western blot analysis. CPS1 pixel intensity (CPS1 OD) at each time point was determined by densitometry scanning. Panels A-D: Immunoblots of time-dependent serum CPS1 levels of four individual mice are shown. CPS1 OD and serum ALT values at each time point are indicated. A Coomassie stain of serum is included as loading control. To determine the half-life of serum CPS1, the OD values of 24 h to 32 h of all five mice were used. Assuming an exponential decay, half-life of CPS1 for each time interval was calculated using the equation; Ending amount=Beginning amount/[…]; where n=number of half-lives. […]
as §1

“Also recorded” adds a separate entry of the source. Where two headings read alike, the source gives them in different places.

Take `CC(=O)Nc1ccc(O)cc1` [APAP, acetaminophen]: the “liver histology (hematoxylin and eosin)” value in series [1] is reported as “necrotic cell death”. Besides, in series [2], the “cell death (viable cell count, trypan blue)” value is listed as “significant cell deaths”.

For the molecule `CCOC(=O)C1=C(C)NC(C)=C(C(=O)OCC)C1C` [DDC], the “liver histology (hematoxylin and eosin)” value in series [3] is “early evidence of cell drop off at days 10 and 15”.

Take “FasL: Fas ligand, which induces hepatocyte cell death (apoptosis)”: the “liver histology (hematoxylin and eosin)” value in series [1] is given as “marked liver hemorrhage; also recorded: severe hemorrhage formation”.

B1: CPS1: most abundant mitochondrial matrix protein of liver, urea cycle enzyme; serum biomarker of acute liver injury (protein, UniProt P31327 39-1500, looked up)
Carbamoyl-phosphate synthase …: LSVKAQTAHIVLEDGTKMKGYSFGHPSSVAGEVVFNTGLGGYPEAITDPAYKGQILTMANPIIGNGGAPDTTALDELGLSKYLESNGIKVSGLLVLDYSKDYNHWLATKSLGQWLQEEKVPAIYGVDTRMLTKIIRDKGTMLGKIEFEGQPVDFVDPNKQNLIAEVSTKDVKVYGKGNPTKVVAVDCGIKNNVIRLLVKRGAEVHLVPWNHDFTKMEYDGILIAGGPGNPALAEPLIQNVRKILESDRKEPLFGISTGNLITGLAAGAKTYKMSMANRGQNQPVLNITNKQAFITAQNHGYALDNTLPAGWKPLFVNVNDQTNEGIMHESKPFFAVQFHPEVTPGPIDTEYLFDSFFSLIKKGKATTITSVLPKPALVASRVEVSKVLILGSGGLSIGQAGEFDYSGSQAVKAMKEENVKTVLMNPNIASVQTNEVGLKQADTVYFLPITPQFVTEVIKAEQPDGLILGMGGQTALNCGVELFKRGVLKEYGVKVLGTSVESIMATEDRQLFSDKLNEINEKIAPSFAVESIEDALKAADTIGYPVMIRSAYALGGLGSGICPNRETLMDLSTKAFAMTNQILVEKSVTGWKEIEYEVVRDADDNCVTVCNMENVDAMGVHTGDSVVVAPAQTLSNAEFQMLRRTSINVVRHLGIVGECNIQFALHPTSMEYCIIEVNARLSRSSALASKATGYPLAFIAAKIALGIPLPEIKNVVSGKTSACFEPSLDYMVTKIPRWDLDRFHGTSSRIGSSMKSVGEVMAIGRTFEESFQKALRMCHPSIEGFTPRLPMNKEWPSNLDLRKELSEPSSTRIYAIAKAIDDNMSLDEIEKLTYIDKWFLYKMRDILNMEKTLKGLNSESMTEETLKRAKEIGFSDKQISKCLGLTEAQTRELRLKKNIHPWVKQIDTLAAEYPSVTNYLYVTYNGQEHDVNFDDHGMMVLGCGPYHIGSSVEFDWCAVSSIRTLRQLGKKTVVVNCNPETVSTDFDECDKLYFEELSLERILDIYHQEACGGCIISVGGQIPNNLAVPLYKNGVKIMGTSPLQIDRAEDRSIFSAVLDELKVAQAPWKAVNTLNEALEFAKSVDYPCLLRPSYVLSGSAMNVVFSEDEMKKFLEEATRVSQEHPVVLTKFVEGAREVEMDAVGKDGRVISHAISEHVEDAGVHSGDATLMLPTQTISQGAIEKVKDATRKIAKAFAISGPFNVQFLVKGNDVLVIECNLRASRSFPFVSKTLGVDFIDVATKVMIGENVDEKHLPTLDHPIIPADYVAIKAPMFSWPRLRDADPILRCEMASTGEVACFGEGIHTAFLKAMLSTGFKIPQKGILIGIQQSFRPRFLGVAEQLHNEGFKLFATEATSDWLNANNVPATPVAWPSQEGQNPSLSSIRKLIRDGSIDLVINLPNNNTKFVHDNYVIRRTAVDSGIPLLTNFQVTKLFAEAVQKSRKVDSKSLFHYRQYSAGKAA
With B1, in series [4], the “half-life of CPS1” value was 1.12 h. Also, the “average half-life of CPS1 in mouse serum” value in series [5] (mice injected with FasL 0.075 μg/g, OD values of 24 h to 32 h of five mice, mean±standard error of mean) stood at 2.1 ± 0.15 h. Also, in series [5] (mice, FasL treatment 0.075 μg/g, combination of turnover and ongoing release), the “half-life of CPS1 in mouse serum” value is ~2.1 h.
